Reference: article PMC4048323 (Nature medicine, 2014)

Biological target: T1, mouse Ebi3 subunit of recombinant IL-35, V5-His-tagged (mouse, UniProt O35228 19-228)
T1 sequence: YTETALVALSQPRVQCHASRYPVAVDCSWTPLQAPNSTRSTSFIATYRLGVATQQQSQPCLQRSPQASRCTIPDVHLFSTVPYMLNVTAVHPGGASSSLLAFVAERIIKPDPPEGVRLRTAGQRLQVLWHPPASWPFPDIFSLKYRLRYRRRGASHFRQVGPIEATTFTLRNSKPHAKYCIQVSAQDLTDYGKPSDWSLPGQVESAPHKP
Test: co-IP

B1: mouse IL-12p35 (p35) subunit of recombinant IL-35, Flag-tagged (natural protein)
chain: RVIPVSGPARCLSQSRNLLKTTDDMVKTAREKLKHYSCTAEDIDHEDITRDQTSTLKTCLPLELHKNESCLATRETSSTTRGSCLPPQKTSLMMTLCLGSIYEDLKMYQTEFQAINAALQNHNHQQIILDKGMLVAIDELMQSLNHNGETLRQKPPVGEADPYRVKMKLCILLHAFSTRVVTINRVMGYLSSA
  binding result: binds
